Patent US11524977 (JIANGSU UNIVERSITY, dated 2022)

Each binder was assayed against Angiotensin converting enzyme (ACE EC 3.4.15.1) (assay: cell-based or functional assay).

Going from LSLP [Leu-Ser-Leu-Pro (LSLP)] to APY [Ala-Pro-Tyr (APY)], the “IC50 of ACE inhibitory activity” value falls from 71.1 µg/mL to 19.1 µg/mL (3.7-fold).

LQPP [Leu-Gln-Pro-Pro (LQPP)] was tested, and the “IC50 of ACE inhibitory activity” value was 14.2 µg/mL.
